Measured values as given in US6465220B1, “Glycosylation using GalNac-T4 transferase” (GlycoZym ApS, priority 1998, dated 2002).

What was measured:
Format in all cases: biochemical
GalNAc-T1 = biological target: T1, GalNAc-T1 (Homo sapiens, UniProt Q10472); assay: GalNAc-transferase assay with purified recombinant GalNAc-T1; conditions: acceptor substrate
T1 construct: Control constructs pAcGP67-GalNAc-T1-sol, pAcGP67-GalNAc-T2-sol, pAcGP67-GalNAc-T3-sol, and pAcGP67-O^2-sol were prepared as previously described; made in house; host or cells: insect cells (baculovirus, pAcGP67)
T1 sequence (Q10472 41-559 limits assumed): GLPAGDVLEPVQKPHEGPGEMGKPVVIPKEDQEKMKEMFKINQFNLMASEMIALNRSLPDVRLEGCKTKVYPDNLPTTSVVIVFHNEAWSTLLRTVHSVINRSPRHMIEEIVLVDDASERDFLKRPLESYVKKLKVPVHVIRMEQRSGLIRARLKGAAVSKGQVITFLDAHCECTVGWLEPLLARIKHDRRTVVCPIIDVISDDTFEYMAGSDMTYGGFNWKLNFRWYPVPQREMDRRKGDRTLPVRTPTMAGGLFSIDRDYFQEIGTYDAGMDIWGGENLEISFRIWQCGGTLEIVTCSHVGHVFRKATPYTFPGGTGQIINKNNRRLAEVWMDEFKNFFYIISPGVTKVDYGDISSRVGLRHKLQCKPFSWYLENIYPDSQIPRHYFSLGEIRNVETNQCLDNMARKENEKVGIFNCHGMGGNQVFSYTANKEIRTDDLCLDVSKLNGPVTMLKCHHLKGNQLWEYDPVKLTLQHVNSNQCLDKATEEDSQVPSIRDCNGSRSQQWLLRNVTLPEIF
Protocol: (§1) The following examples are provided to illustrate certain preferred embodiments of the invention, and should be considered as illustration and not as limitation. In the examples, GalNAc-transferase assays were performed in 50 μl total reaction mixtures containing 25 mM cacodylate (pH 7.5), 10 mM MnCl2, 0.1-0.25% Triton X-100, 150-200 μM UDP-[^14C]-GalNAc (4,000 cpm/nmole) (Amersham) and 0.06-1 mM acceptor peptides. Peptides were either synthesized or obtained from Carlbiotech (Copenhagen), or Neosystems (Strasbourg), and quality was ascertained by amino acid analysis and mass spectrometry. Peptides Muc-1a, Muc-1b, and TAP24, were derived from the tandem repeat of human MUC1, Gendler et al., J. Biol. Chem. 265:15286 (1990), and Muc2, Muc5AC, and Muc7 from the tandem repeats of MUC2, MUC5AC, and MUC7, respectively. Gum et al., J. Biol. Chem. 264:6480 (1989); Porchet et al., Biochem. Soc. Trans. 23:800 (1995); Bobek et al., J. Biol. Chem. 268:20563 (1993). GalNAc4TAP24 was produced by in vitro glycosylation using GalNAc-T2 as described in Wandall et al., J. Biol. Chem. 272:23503 (1997). Products were quantified by scintillation counting after chromatography on Dowex-1, octadecyl silica cartridges (Bakerbond), or HPLC (PC3.2/3 or mRPC C2/C18 SC2.1/10 Pharmacia, Smart System). Products produced by in vitro glycosylation were in most cases also confirmed by mass spectrometry.
In this example, GalNAc-T4 was expressed in Sf9 insect cells. Expression constructs designed to contain amino acid residues 32-578 of the coding sequence of the putative GalNAc-T4 gene shown in SEQ ID NO:1 prepared by genomic PCR of two clones containing GalNAc-T4 (described in Bennett et al. (1998), supra) were cloned into a BamHI site of the expression vector pAcGP67 (Pharmingen), and the expression construct was sequenced. […]

GalNAc-T4 = biological target: T2, GalNAc-T4 (Homo sapiens, UniProt Q8N4A0); assay: GalNAc-transferase assay with purified recombinant GalNAc-T4; conditions: for GalNAc-T4 activity with substrate (in words): purified GalNAc-T4
T2 construct: made in house; host or cells: High Five insect cells (baculovirus, pAcGP67 vector)
Protocol: as §1, with “In” for “The following examples are provided to illustrate certain preferred embodiments of the invention, and should be considered as illustration and not as limitation. In”
In this example, GalNAc-T4 was expressed in Sf9 insect cells. Expression constructs designed to contain amino acid residues 32-578 of the coding sequence of the putative GalNAc-T4 gene shown in SEQ ID NO:1 prepared by genomic PCR of two clones containing GalNAc-T4 (described in Bennett et al. (1998), supra) were cloned into a BamHI site of the expression vector pAcGP67 (Pharmingen), and the expression construct was sequenced. The constructs pAcGP67-GalNAc-T4506Vsol and pAcGP67-GalNAc-T4506 I sol, were designed to yield a putative soluble form of the GalNAc-T4 protein with an N-terminal end positioned immediately C-terminal to a potential transmembrane domain and including the entire sequence expected to contain the catalytic domain. […] Res. Comm. 211:347 (1995).
The activities presented in Table I were obtained with purified GalNAc-T4 and -T2, and are expressed as mU/mg (the concentration of enzyme protein estimated by SDS-PAGE using BSA as standard).

GalNAc-T2 = biological target: T3, GalNAc-T2 (Homo sapiens, UniProt Q10471); assay: GalNAc-transferase assay with purified recombinant GalNAc-T2
T3 construct: Control constructs pAcGP67-GalNAc-T1-sol, pAcGP67-GalNAc-T2-sol, pAcGP67-GalNAc-T3-sol, and pAcGP67-O^2-sol were prepared as previously described; made in house; host or cells: insect cells (baculovirus, pAcGP67)
Protocol: as §1
(§2) In this example, GalNAc-T4 was expressed in Sf9 insect cells. Expression constructs designed to contain amino acid residues 32-578 of the coding sequence of the putative GalNAc-T4 gene shown in SEQ ID NO:1 prepared by genomic PCR of two clones containing GalNAc-T4 (described in Bennett et al. (1998), supra) were cloned into a BamHI site of the expression vector pAcGP67 (Pharmingen), and the expression construct was sequenced. The constructs pAcGP67-GalNAc-T4506Vsol and pAcGP67-GalNAc-T4506 I sol, were designed to yield a putative soluble form of the GalNAc-T4 protein with an N-terminal end positioned immediately C-terminal to a potential transmembrane domain and including the entire sequence expected to contain the catalytic domain. Control constructs pAcGP67-GalNAc-T1-sol, pAcGP67-GalNAc-T2-sol, pAcGP67-GalNAc-T3-sol, and pAcGP67-O^2-sol were prepared as previously described in White et al., J. Biol. Chem 270:24156 (1995); Bennett et al., J. Biol. Chem. 271:17006 (1996); and Bennett et al., Biochem. Biophys. Res. Comm. 211:347 (1995).
Activities measured with the mucin derived substrates, Muc7, EA2, and Muc2 (see Table I for structures and SEQ ID NOs:19, 25 and 18, respectively), were only 2-7 fold over background values. Very low activities with a few other substrates were also observed, but for many of the “mucin-like” substrates a relative high background with Sf9 cells infected with irrelevant constructs made assessment difficult. GalNAc-T4 was expressed in High Five cells and purified to near homogeneity, however, very low endogenous activity was detected with some substrates in the same fractions when medium from cells infected with irrelevant expression constructs were used in the same purification strategy. The activities presented in Table I were obtained with purified GalNAc-T4 and -T2, and are expressed as mU/mg (the concentration of enzyme protein estimated by SDS-PAGE using BSA as standard). The highest activities with GalNAc-T4 were found from assays of Sf9 medium with the mucin peptides Muc7, EA2, and Muc2, however, the efficiencies with these substrates were considerably lower than GalNAc-T2.

GalNAc-T3 = biological target: T4, GalNAc-T3 (Homo sapiens, UniProt Q14435); assay: GalNAc-transferase assay with purified recombinant GalNAc-T3; conditions: acceptor substrate
T4 construct: Control constructs pAcGP67-GalNAc-T1-sol, pAcGP67-GalNAc-T2-sol, pAcGP67-GalNAc-T3-sol, and pAcGP67-O^2-sol were prepared as previously described; made in house; host or cells: insect cells (baculovirus, pAcGP67)
T4 sequence (Q14435 38-633 limits assumed): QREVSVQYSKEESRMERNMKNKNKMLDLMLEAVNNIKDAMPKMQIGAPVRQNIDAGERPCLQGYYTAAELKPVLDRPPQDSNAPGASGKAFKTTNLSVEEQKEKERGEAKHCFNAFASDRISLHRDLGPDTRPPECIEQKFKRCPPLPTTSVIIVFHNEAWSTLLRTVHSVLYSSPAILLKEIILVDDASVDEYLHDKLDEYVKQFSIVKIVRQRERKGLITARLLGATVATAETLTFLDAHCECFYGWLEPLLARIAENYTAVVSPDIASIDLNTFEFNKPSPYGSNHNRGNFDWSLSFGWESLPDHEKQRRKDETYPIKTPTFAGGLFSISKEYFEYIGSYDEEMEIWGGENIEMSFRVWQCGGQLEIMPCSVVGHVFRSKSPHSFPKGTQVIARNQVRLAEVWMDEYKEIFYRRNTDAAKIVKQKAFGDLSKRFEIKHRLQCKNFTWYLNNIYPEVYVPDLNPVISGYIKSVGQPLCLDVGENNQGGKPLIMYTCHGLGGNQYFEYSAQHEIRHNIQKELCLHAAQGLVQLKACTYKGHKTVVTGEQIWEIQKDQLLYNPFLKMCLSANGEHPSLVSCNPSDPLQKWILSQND
Protocol: as §1, §2

Row | Sequence | GalNAc-T4 activity with acceptor peptide (GalNAc-T4; 0.06 mM peptide in 50-μl assay) [milliunits/mg] | GalNAc-T4 activity with acceptor peptide (GalNAc-T4; 0.25 mM peptide in 50-μl assay) [milliunits/mg] | GalNAc-T2 activity with acceptor peptide (GalNAc-T2; 0.06 mM peptide in 50-μl assay) [milliunits/mg] | GalNAc-T2 activity with acceptor peptide (GalNAc-T2; 0.25 mM peptide in 50-μl assay) [milliunits/mg] | GalNAc-T4 activity with substrate (in words) (GalNAc-T4) | other results
1 | DSTTPAPTTK [EA2, mucin derived substrate] | 15 ± 0.1 | 42 ± 4 | 152 ± 3 | 376 ± 5 | – | Km (GalNAc-T1): 70 µM; Vmax GalNAc-T1 (GalNAc-T1): 0.99 nmol/min/µg; Vmax GalNAc-T4 (GalNAc-T4; acceptor substrate): 0.44 nmol/min/µg; Km (GalNAc-T4; acceptor substrate, read-out: Km GalNAc-T4): 2190 µM; Km (GalNAc-T2; acceptor substrate): 850 µM; Vmax GalNAc-T2 (GalNAc-T2; acceptor substrate): 1.80 nmol/min/µg; Km (GalNAc-T3): 460 µM; Vmax GalNAc-T3 (GalNAc-T3): 0.96 nmol/min/µg
2 | PRFQDSSSSKAPPPSLPSPSRLPG [hCG-β] | – | – | 22 ± 0.5 | 74 ± 2 | – | –
3 | PTTTPISTTTMVTPTPTPTC [Muc2, peptide from the tandem repeats of MUC2] | 9 ± 0.5 | 29 ± 0.8 | 169 ± 2 | 128 ± 5 | – | –
4 | QATEYEYLDYDFLPEC [PSGL-1a] | – | – | 0.0 | 0.0 | not | –
5 | RPAPGSTAPPA [Muc1b′, peptide derived from the tandem repeat of human MUC1] | – | 0.7 ± 0.5 | – | 198 ± 9 | somewhat poor activities | GalNAc-T4 activity with acceptor peptide (GalNAc-T4; 1 mM peptide in 50-μl assay): 0.9 ± 0.8 milliunits/mg; GalNAc-T2 activity with acceptor peptide (GalNAc-T2; 1 mM peptide in 50-μl assay): 582 ± 9 milliunits/mg
